The values below come from US20260007756A1, “COMPOUND AND USE THEREOF” (COHERENT BIOPHARMA (SUZHOU) LIMITED, priority 2022, published 2026).

One may read the TGI as the reduction of tumour growth relative to the control group. The term pIC50 denotes −log10 of the IC50, conventionally taken in molar units.

A short description of data set [1]: Solubility study in PBS. The class given is physicochemical. The conditions noted are these: aqueous buffer, thermodynamic from solid; PBS (pH 7.2 to 7.4); read-out: Solubility, concentration. The protocol:
The mixture was vortexed for 2 min until the solid was dissolved. The solubility was calculated as: C=m/V, C: concentration, m: sample weight, V: PBS total volume.

A short description of data set [2]: Plasma stability study 2. The class given is in vitro ADME. The conditions noted are these: mouse plasma, 37° C.; for remaining at 0.5 h, 100 μg/mL / remaining at 1 h, 100 μg/mL / remaining at 2 h, 100 μg/mL / remaining at 4 h, 100 μg/mL / remaining at 6 h, 100 μg/mL: read-out: Residual rate of principal component.
Protocol: • 1) The conjugate compounds were prepared into 1 mg/mL stock solutions with 0.1% TFA-acetonitrile water (1:1); • 2) 10 μL of 1 mg/mL compound stock solution was added into 90 μL of fresh plasma, and the mixture was well mixed by gentle shaking, and transferred to a thermostatic incubator at 37° C. for 0 h, 0.5 h, 1 h, 2 h, 4 h, 6 h, or 24 h of incubation; • 3) at the time points, samples were taken out and 300 μL of methanol solution (containing 10 ng/ml of terfenadine) was added for protein precipitation; • 4) the mixture was centrifuged (13 min, 4° C., 12000 rpm) and the supernatant was collected, and preserved in a −80° C. refrigerator; after collection, the samples were loaded for LC-MS analysis.
The subject of data set [3] is HT-29 cell subcutaneous xenograft tumor. As to the kind of experiment: Pharmacodynamic assessment, HT-29 xenograft model. The class given is in vivo, BALB/c nude mouse. The text has this:
Objective: Pre-clinical assessment of the efficacy of CR202 series of compounds for treating BALB/c nude mouse model with HT-29 cell subcutaneous xenograft tumor.
Procedures: HT-29 cells were subcutaneously grafted at the right back of the mice, and the mice were randomized when the mean tumor volume reached 100-150 mm^3. After the administration, the routine monitoring included the effect on tumor growth and the effect of treatment on the normal behavior of the animals, specifically the activity, food and water intake, weight gain or loss, the eyes, the hair, and other abnormal conditions. Clinical symptoms observed during the study were recorded in the raw data. After the administration was started, the body weight and tumor size of the mice were measured periodically. The tumor volume was calculated using the following formula: V=1/2×(a×b^2), where a and b denote the long diameter and short diameter of the tumor, respectively.

In data set [4] the test system is human prostate cancer 22Rv-1 cell subcutaneous xenograft. The data set can be described thus: Pharmacodynamic assessment, 22Rv-1 xenograft model (Example 17). The conditions noted are these: for Safety: 2.87 / 2.88 mg/kg i.v biw×3w. The class given is in vivo, BALB/c nude male mouse. The protocol: Objective: Pre-clinical anti-tumor effect assessment of CR202 series of compounds in BALB/c nude male mouse model with human prostate cancer 22Rv-1 cell subcutaneous xenograft.
Procedures: 22Rv-1 (CL-00458) cells were cultured in a PRMI1640 medium containing 10% fetal bovine serum. The 22Rv-1 cells in the exponential phase were collected and resuspended in PBS to an appropriate concentration for subcutaneous tumor grafting in nude mice. The mice were subcutaneously grafted at the right back with 1×10^7 22Rv-1 cells, which were resuspended in a mixture of PBS and matrigel (1:1, 0.1 mL/mouse). The growth of the tumors was observed periodically. When the mean volume of the tumors reached 100-150 mm^3, the mice were randomized according to the tumor size. After the administration, the routine monitoring included the effect on tumor growth and the effect of treatment on the normal behavior of the animals, specifically the activity, food and water intake, weight gain or loss, the eyes, the hair, and other abnormal conditions. Clinical symptoms observed during the study were recorded in the raw data. After the administration was started, the body weight and tumor size of the mice were measured periodically. The tumor volume was calculated using the following formula: V=1/2×(a×b^2), where a and b denote the long diameter and short diameter of the tumor, respectively.

The test system of data set [5] is 22RV1. The class given is cell-based, human. The conditions noted are these: 22RV1, 72 h, CellTiter-Glo. The source says:
(§1) Negative and blank controls were set.
(Cellular ATP, detected with luciferase, serves as a proxy for viable cell number.)

Data set [6] concerns MDA-MB-231. The class given is cell-based, human. The conditions noted are these: MDA-MB-231, 72 h, CellTiter-Glo.
Text: as §1

Data set [7] has as its system plasmin. The conditions noted are these: PBS pH 7.4, 37° C. The protocol: • 1) The compounds were formulated into 500 μg/mL stock solutions with PBS (pH 7.4); • 2) 60 μL of 500 μg/mL compound stock solution was added to 420 μL PBS (pH 7.4), before 60 μL of 0.2 U/mL plasmin (or 60 μL of 0.5 U/mL sulfatase) was added, and the mixture was well mixed by gentle shaking; • 3) The cleavage reaction system in step 2) was transferred to a thermostatic incubator at 37° C. for 0 h, 1 h, 2 h, 4 h, or 24 h of incubation. Samples were taken and loaded at various time points for LC-MS analysis.

The mark [8] stands for this setting: 10.9 mg/kg i.v BIW×3, day 25 after grouping.
Where [9] appears, read: 22.7 mg/kg i.v BIW×3, day 25 after grouping.
Where [10] appears, read: 2.88 mg/kg i.v BIW×3, day 29 after grouping.

Structures are written as SMILES. pIC50: −log10 of the molar value. In brackets after ≈: the same amount, converted by molar mass. Read-outs that look alike come from different tables or passages of the source. Numbered stars: 1 amine (or outer) side, 2 acyl side, 3 side chain; on linkers, the order of the positions; unused ones are H or OH. Square brackets hold non-standard residues; d marks the D form. Side chains are listed from the residue outwards. Peptide text beside a SMILES is read from it. * marks the point of attachment. EuK = O=C(O)CC[C@H](NC(=O)N[C@@H](CCCCN*)C(=O)O)C(=O)O; Pteroyl = Nc1nc2ncc(CNc3ccc(C(=O)*)cc3)nc2c(=O)[nH]1; γGlu = O=C(O)[C@H](CCC(=O)[*:2])N[*:1]; X1 = O=C(Cc1ccc(CN[*:1])cc1)[*:2]; Pra = C#CC[C@H](N)C(=O)O; CO = O=C([*:1])[*:2]

As to `C#CC[C@H](NC(=O)[C@H](CCCCN)NC(=O)[C@H](CC(=O)O)NC(=O)[C@H](CC(=O)O)NC(=O)Cc1ccc(CNC(=O)NCCCC[C@H](NC(=O)N[C@@H](CCC(=O)O)C(=O)O)C(=O)O)cc1)C(=O)N[C@@H](CCCCNC(=O)CC[C@H](NC(=O)c1ccc(NCc2cnc3[nH]c(N)nc(=O)c3n2)cc1)C(=O)O)C(N)=O` [CR202W4] ({EuK-CO}-[X1]DDK[Pra]K([γGlu-Pteroyl])-NH2), in data set [1], the solubility came to 2800 µg/mL (≈ 1850 µM).

With `CC[C@@H]1C(=O)N(C)c2cnc(Nc3ccc(-c4cn([C@H]5CC[C@@H](N(CCOCCC#Cc6cccc7c6CN(C6CCC(=O)NC6=O)C7=O)C(=O)OCc6ccc(NC(=O)[C@H](CC(N)=O)NC(=O)[C@H](CC(N)=O)NC(=O)CNC(=O)COCCOCCn7cc(C[C@H](NC(=O)[C@H](CCCCN)NC(=O)[C@H](CC(=O)O)NC(=O)[C@H](CC(=O)O)NC(=O)Cc8ccc(CNC(=O)NCCCC[C@H](NC(=O)N[C@@H](CCC(=O)O)C(=O)O)C(=O)O)cc8)C(=O)N[C@@H](CCCCNC(=O)CC[C@H](NC(=O)c8ccc(NCc9cnc%10[nH]c(N)nc(=O)c%10n9)cc8)C(=O)O)C(N)=O)nn7)cc6)CC5)nn4)cc3OC)nc2N1C1CCCC1` (stereo partly drawn) [CR202V9], in data set [1], the solubility was found to be 15800 µg/mL (≈ 5260 µM). Moreover, in data set [2] (0 h), the “CR20274 release rate (actual release/theoretical release)” value is recorded as 0.11% and the “Residual rate of principal component” value worked out at 99.22%. Besides, in data set [2] (0.5 h), the “CR20274 release rate (actual release/theoretical release)” value is 0.17% and the remaining at 0.5 h, 100 μg/mL stood at 99.8%. In addition, in data set [2] (1 h), the “CR20274 release rate (actual release/theoretical release)” value is listed as 0.22% and the remaining at 1 h, 100 μg/mL amounted to 98.4%. In data set [2] (2 h), the “CR20274 release rate (actual release/theoretical release)” value was 0.21% and the remaining at 2 h, 100 μg/mL was 89.6%. Besides, in data set [2] (4 h), the “CR20274 release rate (actual release/theoretical release)” value turned out to be 0.25% and the remaining at 4 h, 100 μg/mL was determined as 67.1%. Also, in data set [2] (6 h), the “CR20274 release rate (actual release/theoretical release)” value is 0.30% and the remaining at 6 h, 100 μg/mL stood at 66.3%. Besides, in data set [2] (24 h), the “CR20274 release rate (actual release/theoretical release)” value is on record as 1.46% and the “Residual rate of principal component” value was 0.62%.

In data set [3] (setting [8]), `CCOCCNS(=O)(=O)NC(=O)OCCOCCNC(=O)[C@H](Cc1cn(CCOC(=O)NS(=O)(=O)NCCOCCOC(=O)N[C@H](C(=O)N[C@@H](CCCNC(N)=O)C(=O)Nc2ccc(COC(=O)N(CCOCCC#Cc3cccc4c3CN(C3CCC(=O)NC3=O)C4=O)[C@H]3CC[C@@H](n4cc(-c5ccc(Nc6ncc7c(n6)N(C)[C@H](CC)C(=O)N7C)cc5)nn4)CC3)cc2)C(C)C)nn1)NC(=O)CC[C@H](NC(=O)c1ccc(NCc2cnc3nc(N)nc(O)c3n2)cc1)C(=O)O` (stereo partly drawn) [CR202HR] came in with a Mean tumor volume of 946.05 mm^3 and an inhibition of tumour growth (TGI) of 54.51%. In data set [3] (setting [9]), this compound registered a Mean tumor volume of 614.73 mm^3 and a TGI of 70.44%.

In data set [4] (setting [10]), `CCCOCCOCCOCCO[Si](Oc1ccc(COC(=O)N(CCOCCC#Cc2cccc3c2CN(C2CCC(=O)NC2=O)C3=O)[C@H]2CC[C@@H](n3cc(-c4ccc(Cc5ncc6c(n5)N(C5CCCC5)[C@H](CC)C(=O)N6C)c(OC)c4)nn3)CC2)cc1)(C(C)C)C(C)C` (stereo partly drawn) [CR202HT] returned a Mean tumor volume of 690.37 mm^3 and an inhibition of tumour growth (TGI) of 58.19%. Moreover, in data set [4], the “Safety” value was “good safety”.

For `CC[C@@H]1C(=O)N(C)c2cnc(Nc3ccc(-c4cn([C@H]5CC[C@@H](N(CCOCCC#Cc6cccc7c6CN(C6CCC(=O)NC6=O)C7=O)C(=O)OCc6ccc(OP(=O)(O)O)c(C(=O)NCCOCCOCCOCCn7cc(C[C@H](NC(=O)[C@H](CCCCN)NC(=O)[C@H](CC(=O)O)NC(=O)[C@H](CC(=O)O)NC(=O)Cc8ccc(CNC(=O)NCCCC[C@H](NC(=O)N[C@@H](CCC(=O)O)C(=O)O)C(=O)O)cc8)C(=O)N[C@@H](CCCCNC(=O)CC[C@H](NC(=O)c8ccc(NCc9cnc%10[nH]c(N)nc(=O)c%10n9)cc8)C(=O)O)C(N)=O)nn7)c6)CC5)nn4)cc3OC)nc2N1C1CCCC1` (stereo partly drawn) [CR202LB], the “Safety” value in data set [4] is reported as “good safety”.

Take `CC[C@@H]1C(=O)N(C)c2cnc(Nc3ccc(-c4cn([C@H]5CC[C@@H](N(CCOCCC#Cc6cccc7c6CN(C6CCC(=O)NC6=O)C7=O)C(=O)OCc6ccc(NC(=O)[C@H](CCCCN)NC(=O)[C@H](CC(C)C)NC(=O)[C@@H](NC(=O)COCCOCCn7cc(C[C@H](NC(=O)[C@H](CCCCN)NC(=O)[C@H](CC(=O)O)NC(=O)[C@H](CC(=O)O)NC(=O)Cc8ccc(CNC(=O)NCCCC[C@H](NC(=O)N[C@@H](CCC(=O)O)C(=O)O)C(=O)O)cc8)C(=O)N[C@@H](CCCCNC(=O)CC[C@H](NC(=O)c8ccc(NCc9cnc%10[nH]c(N)nc(=O)c%10n9)cc8)C(=O)O)C(N)=O)nn7)C(C)C)cc6)CC5)nn4)cc3OC)nc2N1C1CCCC1` (stereo partly drawn) [CR202V8]: the pIC50 in data set [5] was 7.69; in data set [6], 7.62. Also, the “CR20274 release rate of compounds after cleavage” value was determined as 22% in data set [7] (0 h); 100% in data set [7] (1 h); 100% in data set [7] (2 h); 100% in data set [7] (4 h); 100% in data set [7] (24 h). Also, the “Principal component residue of compounds after cleavage” value in data set [7] (0 h) is 8%; in data set [7] (1 h), 1%; in data set [7] (2 h), 1%; in data set [7] (4 h) it was 0%; in data set [7] (24 h), 0%. In addition, in data set [1], the solubility was 7500 µg/mL (≈ 2450 µM). Also, the “CR20274 release rate (actual release/theoretical release)” value in data set [2] (0 h) came out at 0.06%; in data set [2] (0.5 h), 1.94%; in data set [2] (1 h), 5.56%; in data set [2] (2 h) it was 7.07%; in data set [2] (4 h), 14.20%; in data set [2] (6 h), 14.58%. Besides, the “CR20274 release rate (actual release/theoretical release)” value in data set [2] (24 h) was 105.58%. Moreover, the “Residual rate of principal component” value is on record as 78.37% in data set [2] (0 h) and −2.40% in data set [2] (24 h). Also, in data set [2] (0.5 h), the remaining at 0.5 h, 100 μg/mL was 50.9%. In addition, the remaining at 1 h, 100 μg/mL in data set [2] (1 h) turned out to be 59.9%. Further, the remaining at 2 h, 100 μg/mL in data set [2] (2 h) stood at 49.5%. The remaining at 4 h, 100 μg/mL in data set [2] (4 h) is 41.2%. Further, in data set [2] (6 h), the remaining at 6 h, 100 μg/mL was 32.5%.
